Assay results: paper PMC5825156

Target: SIMx4 probe (fragment of Ring Finger Protein 4 comprising four SIMs) (Rattus norvegicus) (UniProt O88846)
Assay: pull-down; lysate of E. coli expressing HA-TbSUMO chains or monomer incubated with His-tagged SIMx4 or mutSIMx4 probe, 50 mM Tris HCl pH 7.6, 150 mM NaCl, 1% NP40, 0.5% deoxycholate, 1.5 h at 4°C; captured on Ni^+2-resin, washed with 250 mM NaCl, eluted with imidazole; Western blot anti-HA, three replicates

Sequence of UniProt O88846 (O88846 32-132): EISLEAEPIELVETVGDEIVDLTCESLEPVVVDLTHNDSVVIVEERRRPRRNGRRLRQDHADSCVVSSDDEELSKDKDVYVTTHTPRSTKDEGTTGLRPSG

HA-TbSUMO chains (poly-SUMO chains of Trypanosoma brucei SUMO made by in bacteria SUMOylation)
fold pulled down against the mutSIMx4 probe or beads alone: > 3 fold
